These results are taken from article PMC6459870.

Test [1] addresses Human Broccoli Ndc80-GFP complex (human) (UniProt O14777). The test can be described thus: fluorescence microscopy of microtubules on protein-coated beads (dynamic MT end-coupling assay); beads coated with Ndc80-GFP only (no CENP-E) via anti-GFP antibody; GMPCPP-stabilized MT seeds, then unlabeled soluble tubulin (6 µM) with 1 mM Mg-GTP; 32 °C.
Test [2] addresses Xenopus laevis CENP-E-GFP construct (1–473 aa), truncated CENP-E motor (Xenopus laevis). The test can be described thus: fluorescence microscopy of microtubules on protein-coated beads (MT wall-to-end transition assay); GFP-tagged protein held on coverslip-immobilized 0.9 µm streptavidin beads via biotinylated anti-GFP antibody, one protein per bead; HiLyte647-labeled GMPCPP-stabilized MTs in solution; MTs added with 0.1 mM AMP-PNP, then imaging buffer with ATP; BRB80-based buffer; 32 °C; epifluorescence.

The target in test [3] is Human Broccoli Ndc80-GFP complex (human) (UniProt O14777).

Chain of UniProt O14777 (O14777 whole entry, looked up, the tested form may be a part, one chain of several): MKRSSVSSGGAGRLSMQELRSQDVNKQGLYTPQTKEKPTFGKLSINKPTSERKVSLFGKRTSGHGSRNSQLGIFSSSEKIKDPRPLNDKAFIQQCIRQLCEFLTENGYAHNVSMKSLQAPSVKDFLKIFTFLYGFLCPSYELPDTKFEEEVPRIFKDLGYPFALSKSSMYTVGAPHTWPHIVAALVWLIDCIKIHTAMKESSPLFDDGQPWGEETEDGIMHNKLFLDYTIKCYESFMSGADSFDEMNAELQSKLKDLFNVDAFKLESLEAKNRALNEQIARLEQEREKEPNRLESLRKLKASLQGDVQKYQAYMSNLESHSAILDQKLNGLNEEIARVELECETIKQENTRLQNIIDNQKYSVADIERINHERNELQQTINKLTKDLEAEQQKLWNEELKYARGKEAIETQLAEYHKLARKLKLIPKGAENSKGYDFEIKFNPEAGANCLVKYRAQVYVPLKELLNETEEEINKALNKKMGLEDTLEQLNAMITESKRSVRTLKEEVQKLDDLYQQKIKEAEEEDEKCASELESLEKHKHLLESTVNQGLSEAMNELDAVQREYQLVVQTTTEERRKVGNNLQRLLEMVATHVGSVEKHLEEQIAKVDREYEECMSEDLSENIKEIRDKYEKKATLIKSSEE

In test [1], “Microtubules polymerised from bovine brain tubulin (from UniProt Q6B856 1-445) (complex)” gave a percent of MT segments attached via their ends of 3%. In test [2], the MT end-retention time came out at 1.1 min and the percent of MT plus-ends retained at the bead is 24%. In addition, in test [3], the Kaplan–Meier survival of MT end-attachments on beads coated with CENP-E motor and Ndc80 Broccoli was over 28 min; the MT end-retention time on beads coated with CENP-E motor and Ndc80 Broccoli (wall-to-end transition assay) stood at 18.1 min; the percent of MT plus-ends retained on beads coated with CENP-E motor and Ndc80 Broccoli (wall-to-end transition assay) turned out to be 80%.
